# Laboratory results as given in paper PMC9775241, “One-Step Photochemical Immobilization of Aptamer on Graphene for Label-Free Detection of NT-proBNP”.
# Key:
# [1] = molecular target: NT-proBNP (UniProt P16860 27-102); experiment: graphene field-effect transistor (GFET) aptasensor; LOD 0.01 pg/mL, range 0.1-10^4 pg/mL; Langmuir KD calculated but value not in material; PBS (137 mM NaCl, 2.7 mM KCl, 10 mM phosphate) used for immobilization and blank; sensing buffer dilution, pH and temperature not given in material; aptamer on; details: protein: commercial
# [2] = molecular target: cTnI (cardiac troponin I) (UniProt P19429 2-210); experiment: graphene field-effect transistor (GFET) aptasensor; cTnI 3.5 ng/mL; no significant response; PBS (137 mM NaCl, 2.7 mM KCl, 10 mM phosphate) used for immobilization and blank; sensing buffer dilution, pH and temperature not given in material; aptamer on; details: protein: commercial
# cTnI (cardiac troponin I), sequence (P19429 2-210): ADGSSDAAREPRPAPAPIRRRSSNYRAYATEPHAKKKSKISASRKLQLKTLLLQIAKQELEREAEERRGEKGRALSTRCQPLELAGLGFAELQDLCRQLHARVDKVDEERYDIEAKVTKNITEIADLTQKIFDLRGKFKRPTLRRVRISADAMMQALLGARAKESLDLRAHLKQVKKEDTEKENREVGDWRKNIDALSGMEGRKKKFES
# NT-proBNP, sequence (P16860 27-102): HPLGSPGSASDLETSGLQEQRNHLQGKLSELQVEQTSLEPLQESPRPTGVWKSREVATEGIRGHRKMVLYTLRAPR
binder,measurement,setting,value
"azide-modified NT-proBNP aptamer (N20a in Fig. S3 legend) (ssDNA, 5'-NH2; 3'-azide (N3), photochemically coupled to graphene) DNA: GGCAGGAAGACAAACAGGTCGTAGTGGAAACTGTCCACCGTAGACCGGTTATCTAGTGGTCTGTGGTGCTGT",binding result,[1],binds
same,binding result,[2],no binding
